Patent US20090175847A1

What was measured:
Aβ(1-42) fibrils (human) = Aβ(1-42) fibrils (human) (UniProt P05067); experiment: co-pelleting with Aβ(1-42) fibrils (20 h, 37 °C), SDS-PAGE, densitometry of the antibody heavy chain in pellet and supernatant
Aβ(1-42) monomer (human) [1] = experiment: dot blot densitometry; antigen: Aβ(1-42) monomer, 0.1% NH4OH
Aβ(1-42) monomer (human) [2] = experiment: dot blot densitometry; antigen: Aβ(1-42) monomer, 0.1% NaOH
[3] = target: Aβ(1-42) globulomer (human) (UniProt P05067); experiment: dot blot densitometry; antigen: Aβ(1-42) globulomer
Sequence of Aβ(1-42) globulomer (human) (P05067 672-713 limits assumed): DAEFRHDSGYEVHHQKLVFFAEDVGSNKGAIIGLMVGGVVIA

Sequence of Aβ(1-42) monomer (human) (peptide, as listed by the source): as the sequence (P05067 672-713 limits assumed) above
Sequence of Aβ(1-42) fibrils (human) (P05067 672-713 limits assumed): as above

Substance | antibody bound to fibrils [%] (Aβ(1-42) fibrils (human)) | relation between recognition of Aβ(20-42) globulomer and the respective Aβ form (Aβ(1-42) monomer (human) [1]) | relation between recognition of Aβ(20-42) globulomer and the respective Aβ form (Aβ(1-42) monomer (human) [2]) | relation between recognition of Aβ(20-42) globulomer and the respective Aβ form [3]
IgG2a antibody isotype control made against KLH (Keyhole Limpet Hemocyanin) | 9 | – | – | –
mouse monoclonal antibody 6E10 (Signet No 9320) | 91 | 1 | 1 | 0.02
